Experimental data taken from the DeepSol protein solubility set.

test: soluble on expression in E. coli; label from the status in PepcDB or PDB records

Row | Sequence | soluble on expression in E. coli
1 | MSLGDQLKIIQDGQSFAFSLDTLLLAYWAKEAIKNRSKVVELCSGNAAASLYMAAFNKAHYDDVELQEDIVSKARRSVELNDMQDRITVHQGNVKDAGSFLRKDSYDVVVVNPPYFKAPAGHKLNPDRSKAIARHELEINLEEIIAVSAGLLKMKGKMFMVHRPERLGEIINYGFKHDLAVKTVQPFVSRRGQDANLVIVEAVRSGKGDGLVLRDAIEVHEADGSNTPAIKEILEAKEGHHHHHH | soluble
2 | MSLGDSEIYVSLDIGTASVKVIIAEMADDRLNIIGVGNVESSGIKKGIIIDIHKTVESIKKAIEQAERMVGVEISQVIVGVVSSQVHLEACRGIVAVGSENREITDEDVWNVMDAAQVVPLSPEREIINTIPDQFVVDGLTGITDPRGMIGVRLEMEGTLITGSKTILHNTLRCVERAGLEISDIALQPLAEASISLSEDDKEFGTALVNVGAGTTTVSVFEQGRLTYTGVIPVGGDNITKDLSLGLNTSTANADRVKLDHGYAFYDDASPDEVFAIDVIGSDQKQHFTQVEVADIIEARMEEIFQLVVEELTRVGKTHLPGGYVLTGGSMAIPGAIDLAGKTLAAHVRLAIPDYIGVREPSFTTAVGLIKYAYQMVELEGRDVSSEGHHHHHH | soluble
3 | MSLGEIWYGGTIYTMREENEKVDAIYVENGMIVDVGSKKELENRYAAVTLYDLEDKTMIPGLVDSHMHLIGHGERLLRLDLSNCTSYSEVLTLVRKRVEEAPKGSWIIGEGWNENNFTDTKDVHARDLDEISKEHPILLKRVCRHVTWVNSYILQEANITEKAEDPKGGKIGRDSSNMLTGLLYEQGQELIKHVQPEIDEAYLQSALQTAIKDCWQYGLVGGHTEDLNYYGGFRKTHNAFSHVIKEMPFKAHLLVHHEVAQERKEYENEHYIEFGAMKIFSDGSFGGRTALLSEPYEDAKETNGVAIFSREELAELVKKARDLHMPVAIHTIGDLSLEYVIDALELYPPAEGLRDRIIHCQLAREELIERMKNLQAIIDIQPVFVSSDFPSVIEKLGEHRLRYAYAWKTLLEAGLHCNGGSDAPIEQVNPFLGIYSAVTRRSFIDGVCYMPEERLTAYEAVSLFTTGSAYAIGKEEKRGQITKGYEADFTILDRNIFEIEAEEIKEVQAEMTVIDGKVVYRKDAEGHHHHHH | soluble
4 | MSLGITDSGLSEKQVEKLVRASRPNNPSPDIWARAIKESLEELGQPVDKEHVSAVCAVISQVSAFSISPKNSRMASILRKKIEAAESNEVLRLLIETRLDQTASNGRTFRENIDSIQSELDFEKWYDEFTSASVTKPILLVLKKDASDLITTAGSMQVSVKFAEEYPKKPRNAGGGSVRDMLYTCKGGVFYGTAYLLDYKHNYDDWKYVFADFNAGHYTSRNAGFQKMLGRLTHRMVDTDGDLLSYENGNATPSVTYVTFINFLKDKGIGFDEKKVMKDFQQEKSYDFEETWSYKTLSELYKKKYGHPIYAVLPDIPLNSPKFVSKNLSTKWFAERVKSRYNHCMRTSIEGHHHHHH | soluble
5 | MSLGKYFGTDGVRGEANVELTPELAFKLGRFGGYVLSQHEPDRPRVFVARDTRISGELLESALVAGLLSVGIEVYKLGVLATPGVSYLVRTEQASAGVMISASHNPALDNGIKFFGGDGFKLADEQEAEIEALLDAKEDDLPRPSAQGLGMVVDYPEGLRKYEKFLVSTGSDLEGMKIAIDAANGAASYSARQVFLDLNADITVIGEEPDGLNINDGVGSTHPEQLQNLVKGSDFVIGLAFDGDSDRLIAVDENGEIVDGDKIMYIIGKYLSEKGRLSKNTIVTTVMSNLGFHKALDRENINKKITAVGDRYVVEEMRRSGYNLGGEQSGHVIIMDYNTTGDGQLTAIQLTKVMKETGKTLSELANEVTIYPQKLVNIYVKNDMKNKAMEVPMIAQIIEKMEAEMAGNGRILVRPSGTEPLLRVMAEAPSTEEVNYYVDTIAKVVKTEIGIEGHHHHHH | soluble
6 | MSLGLHACIDPIAVAHNLEVLRQRLGVGVDGPRIWATVKADAYGHGLHNVLPGLRAADGIAVRHLHEAHQCRRVGWSGPIMVYAGLTHEREAALLTLQQLHLVITDMTQLEWLPGKPLYSCAPWIWLRYIGATRLGGLDASEYRRAYARCRELQQHGALRGVGHLNHYANAASVGDLEREHADFEACIRGLPGPVSTCNSAAACVLPTMAARTDWVRPGLALYGVSPIPGRAGRDLGLRPAMTLRSTLCATQNLPAGASVGYGCTFVADQPMALGLVRCGYGDGYPHNPRASFPVQVDGVLTRTVGRISMDLMAVDLRPIPAAARGAPVVLWGSPQLPVEHIAHAAGTIAAELLTGLTARVPLMRADHAALLREGHHHHHH | soluble
7 | MSLGLHITDQQVHRYMSQRRHHTQAVAAAKAGISERSARRIDKNPQLPSQKKRERHWRTRPDPLEQIWPRVEELLKIAGILSVTIFETVQDEFGEAAVPDGVRRTLERRIARWRALNGGEKEIFFPQHHEIGRQGLLDFTVADDLHVTIAGQRFDHRLFHFRLASSGWEDSAVVLGGESFTALSEHLQDALWKLGGVPAELRSDSLSAAYKNLDADAQRDFTRNYEALCRHYGMTPTRNNKGVAHENGSIEAPNGHLKRRMDQALRRRSSRDFPSIEDYRRFVDQEVAKQNRRRARLMDDERRVLKSLPPKRTTDFTLVSADVTRNSTISVDRVTYSVPSRLIGYRLHAHLYDDRVEFFLGPDQVMTADRVRVKHAERGHNIDFRHFIGNLKRKPQALRYLVYRNALFPTHAYTRAWQALDAALDARQACRDMVALLDIAANGNCVDALALRIEAALDRGKLPNVAKLKSEFLPTVRSRVDVTIPPPDFAGYNHLLANAQEGHHHHHH | not soluble
8 | MSLGLINVLIADDQTLMREGLKTIIDLEDDMNVTGLAKNGKEVLDQIPCLLPHVILMDIQMPIMNGIECLKVVKRIYPHINVLMLTTFEDDDYIIESLVGGANGFLLKDLNYDQLIYSIRQSVDGQMLIPNSIAVKLAKQLSKYNELTEVDLQIEKLKKEGLHFSERERQIASLLAQGLTNKKIAEKLYITEGTVKNYISEIYSKIGIRDRMQASTYLRELGINDEGHHHHHH | soluble
9 | MSLGLLNCLTGAALPLMESDVTSYVSGYALGLTASLTYGNLEAQPFQGLFVYPIDEYSTVVGFEAVIADRVVTIQLRDKAKLDRSHLDIQPATVTGNFPEEESPIAPGKVTLDEDLERVLFVVNLGTIAPMENVTVFISTSSELPTLPSGAVRVLLPAICAPTVPPSCTHRFGSSSPQPQGKDPHCFGTQTKDSYNRLCLATLLDTKVTNPMEYEFKFQLEIRGPCLLAGVESPTHEIRADAAPSAHSAKSIIITLAKKHTFDRPVEILLHPSEPHMPHVLVEKGDMTLGEYDQHLKGKADFIRGTKKDNSAERKTEVIRKRLHKDIPHHSVIMLNFCPDLQSVQPNPRKAHGEFIFLIDRSNSMSKTNIQCIKEAMLVALKSLMPACFFNIIGFGSTFKAVFASSRIYNEENLTMACDCIQRMQADMGGTNMLSPLKWVLRQPLRRGHPRLLFLITDGSVNNTGKVLELVRNHASSTRCYSFGIGPTVCYRLVKGLASVSKGSAEFLMEGERLQPKMVKSLKKAMAPVLSDVTVEWVFPETTEALISPVSTSSLFPGERLMGYGIVCDASLYISNSRSEGHHHHHH | not soluble
10 | MSLGLSFFSKHLPIQEGQPWALKTPADIISTVEFNHTGELLATGDKGGRVVIFQREPESKNAPHSQGEYDVYSTFQSHEPEFDYLKSLEIEEKINKIKWLPQQNAAHSLLSTNDKTIKLWKITERDKRPEGYNLKDEEGKLKDLSTVTSLQVPVLKPMDLMVEVSPRRIFANGHTYHINSISVNSDCETYMSADDLRINLWHLAITDRSFNIVDIKPANMEDLTEVITASEFHPHHCNLFVYSSSKGSLRLCDMRAAALCDKHSKLFEEPEDPSNRSFFSEIISSVSDVKFSHSGRYMLTRDYLTVKVWDLNMEARPIETYQVHDYLRSKLCSLYENDCIFDKFECAWNGSDSVIMTGAYNNFFRMFDRNTKRDVTLEASRESSKPRAVLKPRRVCVGGKRRRDDISVDSLDFTKKILHTAWHPAENIIAIAATNNLYIFQDKVNSDMHEGHHHHHH | not soluble
11 | MSLGNNLKKKNGADSLYYTTRTFATTKEVIQANKFVNSEKLNEIAKKTDCTYLKSPAGIFTQATLPINKIYEELSHDTINAVKLTFNSYNQPDNGKFSMKAPTYVLLLREKERQSFFEENKLTDNITSYLAVHNAIISNKPTTNQYVFTNLTRLINACVNEKQEAKKKAGDSWNEAAWEAANPDWNKVVLIPVLVQYDSSSNKNMISIQHDLQPGYVKLEGGPDGTKLKLEVTYTNFNGKEGHHHHHH | soluble
12 | MSLGPPSIARTVTPNASIPKTPEDISILPVNDEPGYLQDSKTEQNYPELADAVKSQTSQTCSEEHKYVIMIDAGSTGSRVHIYKFDVCTSPPTLLDEKFDMLEPGLSSFDTDSVGAANSLDPLLKVAMNYVPIKARSCTPVAVKATAGLRLLGDAKSSKILSAVRDHLEKDYPFPVVEGDGVSIMGGDEEGVFAWITTNYLLGNIGANGPKLPTAAVFDLGGGSTQIVFEPTFPINEKMVDGEHKFDLKFGDENYTLYQFSHLGYGLKEGRNKVNSVLVENALKDGKILKGDNTKTHQLSSPCLPPKVNATNEKVTLESKETYTIDFIGPDEPSGAQCRFLTDEILNKDAQCQSPPCSFNGVHQPSLVRTFKESNDIYIFSYFYDRTRPLGMPLSFTLNELNDLARIVCKGEETWNSVFSGIAGSLDELESDSHFCLDLSFQVSLLHTGYDIPLQRELRTGKKIANKEIGWCLGASLPLLKADNWKCKIQSAEGHHHHHH | soluble
13 | MSLGPTSKAISRNVRSVKRPRRAPRPVVSTQAMNKLSNVTLSAEQEKLRERVLSFMRSNLSQYKSDWKHPAMFVIQGDAGTGKSVILNSLFNEIQKLSQFSPSSEDILHGTHNYLVVNHPEMLKLYIRISDSFKYISKSSLERPTSLINNLQKRKVMADVVIVDEAHLLATSKDAFKRFYGENHLKDLMSLCKVLVLVYDDKQALRMGSYWDEGSNNGATLKDFYNEIPPKSRDWYTLKQQFRVAAPQNVLNWIDQISVAGKIPPIESVLSKGNADCADDKIKNFDFKIWDDCGAMYEAIKEKDRQYGQCRMLSTYDFPYRLDGKDYYVECGDNFKVRWDRYTPREVTPWSERCDTIDEVGSVYTIQGFDLNYAGVILGRSIGYDAANDCIKLRPELYDDRAGFTKKKNIHNAEDVKQKIIMNSINVLLTRGVRGLYVYAYDPELRERLLRPSKEGHHHHHH | soluble
14 | MSLGQDIGFYLGRIDSEMDSWVADPDEALKASNKLFFLNPFQANKVGIKGKANSNPNTQLSGDTGEGKSFAAKLIHLYSSFLKVKTLYIDPKLEMEANYKRVLKEFEEQDVYPEIQKYIRSLSFATLDSTKNENLGVLDPLVFLPKKRAKGLIVSMIGELIKYDSHISFKTELSHQLSLFADRRARGEQVGTLTVLKELYNHSERQDVRDTAESLIEDIKDSILGLVFSDGKNQAVDLNARNVILGVSGLDLPQDDSIVHSDLTLQQRYSLVIMYALGEFVIQFAERDYKEHTLEIVDEAWFLETSAVGRGIFNRMKRLNRRFNNFLYFVSQEIDDSNRGKDEKTAFGSYFCFRNDDSTKVDSILRRLGVQPTEESRKWFDNLSLGQCLYRDSANRVERVTFDGLFPEVKELFKTVENDSLEGHHHHHH | soluble
15 | MSLGQYDMQLIMGRTRWNGEFIGFERSTEKGVFSSNLKTEFMVELAESGGVGVFLNRRRVAALSLDGSRRALEAVLSCQKAFMTAQSDTRDEPSTDTKPKRHTKSSGTGFYVSDSGHIVTNHHVIAECSTINVLPPGGAAVSATLVAKDKTNDLAILKTASSPAAIPGLRSQMRLGEAVYVFGFPLTGILSTSGNFTAGAITATTGMEDDTRLAQISAPVQPGNSGGPLLDKYGNVIGVIVSKLNALNIAAATKDIPQNVNFAIKTGIATNFLDSSGVVPTGKVSTRELAPEAIADLAKIFTVQVLCNEGHHHHHH | not soluble
16 | MSLGRQEMDEHVAIETPYAIALNDRVIGSSMVLPVDLEEFGAGFLFGQGYIKKAEEIREILVCPQGRISVYADVENEEPREVIITSGCGGTGKIPKEMLEGEFAPLADYCLPFAEIKSFIREALHSSPLGPQTHCVHGCGLWNNGRLQVYHEDVGRHNAVDKVLGSILLGRASNNSAVYTTGRLTSDMVLKCARIGIPIIMSRTSPSSLGLALAKRSGATLVAYSRPERINVFNAPERILTEGHHHHHH | not soluble
